Results on two substances are retold here after paper PMC7807036.

The target of data set [1] is T1, thrombin (human) (UniProt P00734+P00734). The data set can be described thus: AFM. The settings on record: Clotting: 20 mM Tris, 150 mM NaCl, 5 mM KCl, 1 mM MgCl2, 1 mM CaCl2, pH 7.4, 12 nM thrombin, 25 C, 5 min; AFM binding conditions not given in the material.
Data set [2] addresses T1, thrombin (human). The data set can be described thus: fibrinogen clotting (light scattering). The settings on record: Clotting: 20 mM Tris, 150 mM NaCl, 5 mM KCl, 1 mM MgCl2, 1 mM CaCl2, pH 7.4, 12 nM thrombin, 25 C, 5 min; AFM binding conditions not given in the material.

In the case of “origami nanostructure IV (9 TBA15 + 9 HD22, ~5.4 nm)”, the binding signal (% of origami with bound thrombin) with thrombin (human) [1] is 76.

On to “Aptarray (rectangular origami, 36 TBA15 + 36 HD22, 5.4 nm)”, for which the binding signal (% inhibition of thrombin) with thrombin (human) [2] stood at 98.3.
